B1: DAF-Fc (decay accelerating factor, DAF/CD55, fused to the human IgG1 Fc region) (Fc fusion)
chain: DCGLPPDVPNAQPALEGRTSFPEDTVITYKCEESFVKIPGEKDSVICLKGSQWSDIEEFCNRSCEVPTRLNSASLKQPYITQNYFPVGTVVEYECRPGYRREPSLSPKLTCLQNLKWSTAVEFCKKKSCPNPGEIRNGQIDVPGGILFGATISFSCNTGYKLFGSTSSFCLISGSSVQWSDPLPECREIYCPAPPQIDNGIIQGERDHYGYRQSVTYACNKGFTMIGEHSIYCTVNNDEGEWSGPPPECRGKSLTSKVPPTVQKPTTVNVPTTEVSPTSQKTTTKTTTPNAQATRSTPVSRTTKHFHETTPNKGSGTTS
B2: Biotinylated recombinant CD97, N-terminal extracellular domain (residues 24-540) with Fc domain and avidin tag (Fc fusion)
chain: RGCARWCPQNSSCVNATACRCNPGFSSFSEIITTPTETCDDINECATPSKVSCGKFSDCWNTEGSYDCVCSPGYEPVSGAKTFKNESENTCQDVDECQQNPRLCKSYGTCVNTLGSYTCQCLPGFKFIPEDPKVCTDVNECTSGQNPCHSSTHCLNNVGSYQCRCRPGWQPIPGSPNGPNNTVCEDVDECSSGQHQCDSSTVCFNTVGSYSCRCRPGWKPRHGIPNNQKDTVCEDMTFSTWTPPPGVHSQTLSRFFDKVQDLGRDSKTSSAEVTIQNVIKLVDELMEAPGDVEALAPPVRHLIATQLLSNLEDIMRILAKSLPKGPFTYISPSNTELTLMIQERGDKNVTMGQSSARMKLNWAVAAGAEDPGPAVAGILSIQNMTTLLANASLNLHSKKQAELEEIYESSIRGVQLRRLSAVNSIFLSHNNTKELNSPILFAFSHLESSDGEAGRDPPAKDVMPGPRQELLCAFWKSDSDRGGHWATEGCQVLGSKNGSTTCQCSHLSSFAILMAHY
modifications: biotin (in situ biotinylation by BirA-ER during expression)

Assays:
Test in all cases: BLI
[1] = molecular target: B2
CD97 Ab with known Kd = molecular target: CD97 Ab with known Kd
[2] = molecular target: CD97 Ab with same binding site as DAF-Fc

| Kd [1] [nM] | Kd (CD97 Ab with known Kd) [µM] | Kd [2] [nM] | Binder |
| --- | --- | --- | --- |
| 340 | – | – | B1 |
| – | 7.7 | 4.5 | B2 |

Source: paper PMC8795421 (2022)
